Target: Slc1-FLAG (SycE-like chaperone 1; CT043) (Chlamydia trachomatis)
Assay: SEC

With “Slc1-FLAG (SycE-like chaperone 1; CT043) (natural protein)” the stoichiometry N was 2.

— article PMC3214626
